Test results: patent US20070249530A1 (Genentech, published 2007)

Legend:
[1] = target: T1, Human BAFF (residues 82-285) (human, UniProt Q9Y275 82-285); experiment: SPR (BIAcore 3000), BAFF immobilized, 1:1 model
T1 construct: also called BAFF82-285
Experimental: CM5 chips from BIAcore were docked according to manufacturer instructions. Then, BIAcore system was primed with 0.2 μm filtered buffer containing 10 mM Hepes pH 7.2, 150mM NaCl, 0.005% Tween20. After buffer priming, the flow cells were normalized with 70% glycerol. Each flow cell surface was activated individually in preparation for linkage of the ligand to the chip with a 1:1 mixture of EDC(N-ethyl-N′-(3-dimethyl aminopropyl)-carbodiimide hydrochloride) and NHS (N-hydroxysuccinimide). […] Generally, the ligand to be immobilized (30 μg/ml in 10 mM NaOAc, pH 5 buffer) was injected into the system at 40 μl/min. Once approximately 400 RU was generated, the flow cell was blocked with ethanolamine. […] The system was then primed again.
The ligand-receptor complex was allowed to dissociate by washing the flow cell at 30 μl/min for 600 seconds. Alternatively, if several binding measurements over the same flow cell were to be performed, the ligand-receptor complex was allowed to dissociate by washing the flow cell at 30 μl/min for 900 seconds. Sensorgrams were recorded for each binding assay. A 1:1 Langmuir binding equation was used to simultaneously fit the association and dissociation rates of the ligand-analyte interactions. kₐ, kd, KD were calculated using curve fit analysis software provided with the BiaCore instrument

[2] = target: T1, Human BAFF (residues 82-285); experiment: competitive displacement ELISA on immobilized BAFF; unbiotinylated BCMA-Fc varied, tracer biotinylated miniBR3
Experimental: The plate washed with PBS and blocked for 1 hr with 200 μl of 0.2% BSA in PBS at room temperature. […] The plate washed with PBS/Tween-20 and incubated with 100 μl/well of 0.1 U/ml Streptavidin-POD (Boehringer Mannheim) for 15 minutes at room temperature. After washing the plate with PBS/0.05% Tween-20 followed by a final wash in PBS, the plate was incubated for 5 min with 100 μl/well PBS substrate solution containing 0.8 mg/ml OPD (Sigma) and 0.01% H₂O₂.

[3] = target: T1, Human BAFF (residues 82-285); experiment: competitive displacement ELISA; immobilized BAFF, tracer biotinylated mini-BR3; bivalent Fc construct (avidity); competition ELISA
[4] = target: T1, Human BAFF (residues 82-285); experiment: SPR (BIAcore 3000), BAFF immobilized

T1 sequence (Q9Y275 82-285): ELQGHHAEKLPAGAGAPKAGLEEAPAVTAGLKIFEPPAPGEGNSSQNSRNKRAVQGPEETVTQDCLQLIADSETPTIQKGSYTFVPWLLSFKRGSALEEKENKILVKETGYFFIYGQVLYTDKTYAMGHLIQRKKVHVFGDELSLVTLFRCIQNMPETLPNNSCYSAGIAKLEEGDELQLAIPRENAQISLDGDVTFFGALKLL

AGQCSQNEYFDSLLHACIPCQLRCSSNTPPLTCQRYCNASVTNSVKG (Fc fusion, not shown: a dimerising Fc or GST, also called BCMA(wt)-Fc; BCMA-Fc wt) [BCMA-Fc]
Kd [1]: 4.9 nM | koff [1]: 0.0034 s⁻¹ | kon [1]: 680000 M⁻¹ s⁻¹ | IC50 (read off the curve) [2]: ~9 nM | IC50 [3]: 13 nM

B1: BCMA ECD purified from baculovirus expression (receptor, not shown: small tags and cut ends)
chain: MAGQCSQNEYFDSLLHACIPCQLRCSSNTPPLTCQRYCNASVTNSVKGTN
notes: also called BCMA(baculovirus); baculovirus BCMA
binding result [4]: no binding (tested: analyte 6.25 nM to 200 nM)
